The text below walks through data of the DeepSol protein solubility set.

The data set in a line: soluble on expression in E. coli; label from the status in PepcDB or PDB records.
With “TKEGQIKGKLLLPGGVKTCPVVLIIAGSGPTDMDGNSAIGNLRNNSLKFLAEGLAANGIASLRFDKRGIGTSASAGKEEAKLRFEDYVNDVTGWIDYLAKEKRFTTITVAGHSEGALIGMLACQNRPKVKGYISVAGAGRPAYEIIEAQVAAQQNPEAVRKEVASINGSLKNGKEVSDVPAYLQSLYRASVQPYLISWFKYNPRTVIASVKVPVLIVQGKNDIQVSVEDAELLKKGCPAAELLLIDKMNHVLKDCESKAVQQQMLTYGNPSLPVNSTLIASVSTFVKKLK”, the “soluble on expression in E. coli” value is reported as “soluble”.
To “TLTTPPLELSDAIEYILMPLKAVHFPVYEVALMLSIALRFVPTLMDETEKIMNAQRARGVDFGEGNIFQQMRAVVPLLIPLFVSSFNRAEDLATAMEARGYQGGEGRSKYRILKWHQRDTWATGCFAILTVALIFLRA” belongs “not soluble”.
To “TNGFLKILGLGSGHDDKDKLSSEELRTVVHEAGGLIPRRHQDMLISILDLEHVTVNDIMVPRSEITGIDINDDWKSISRQLTHSPHGRIVLYRDQIDEVVGMLRLRESYRLMLEKNEFTKETLLRAADEIYFIPEATPLNSQLLKFQRNKERIGLVVDEYGDIQGLITLEDILEEIVGEFT” belongs “not soluble”; to “TPNEMGYLHVIENLTKKRMTPLRPPTEKEAFKGQLSAAVETIESDLEENGLDKYLESAEALLEKYSATDLAALLLKTVAKDPADAVPVKITPERPLPSNKKGFNKNGR”, “not soluble”.
To “TPRGYTTWVNTIQTNGLLNEASQNLFGILSVDCTSEEMNAFLDVVPGQAGQKQILLDAIDKIADDWDNRHPLPNAPLVAPPQGPIPMTARFIRGLGVPRERQMEPAFDQFRQTYRQWIIEAMSEGIKVMIGKPKAQNIRQGAKEPYPEFVDRLLSQIKSEGHPQEISKFLTDTLTIQNANEECRNAMRHLRPEDTLEEKMYACRDIG” belongs “soluble”.
Take “TPTDKHGGSDTRCPLMVKILDAVKGTPAGSVALKVSQKTADGGWTQIATGVTDATGEIHNLITEQQFPAGVYRVEFDTKAYWTNQGSTPFHEVAEVVFDAHPEGHRHYTLALLLSPFSYTTTAVVSSVHE”: the “soluble on expression in E. coli” value is “soluble”.
Consider “TQDMELNINANITFQQNKLLSLSGMYNGELISAPEYKSLASLDGAGFHGGYNHIVYQVVGQPLGVFYLPRANGLVSDGNGGYTYDIADLNGGGVSLEDGEDRYVAGQAVPKTILGSNLSFRYKRFDISVQINGAFGHKIYNGTSLTYMNMNIFPDYNVMQEAPARNIKDQTATDYWLENGAYVNFDYVTLGWNVPIEKVQKLKKYVRSLRLAFTVNNLATISGYSGLSPMINSSTVNSTLGLDDKRGYPLARTYTLGLSINF”, for which the “soluble on expression in E. coli” value is listed as “not soluble”.
To “TRSVKSCVGKEFCRFGTQYTTRLGIRLEKTFEYIDTPHKFKMGVSGCPRSCVESGVKDFGIISVENGFQIYIGGNGGTEVEKAEFLTTVETEDEVIKLCGALMQYYRETGIYAERTAPWLRRLGFENVKEVLLD” belongs “not soluble”.
Take “TVAYIAIGSNLASPLEQVNAALKALGDIPESHILTVSSFYRTPPLGPQDQPDYLNAAVALETSLAPEELLNHTQRIELQQGRVRKAERWGPRTLDLDIMLFGNEVINTERLTVPHYDMKNRGFMLWPLFEIAPELVFPDGEMLRQILHTRAFDKLNKW”: the “soluble on expression in E. coli” value was “soluble”.
“TVQTQDKVTAMDKDPKVTVDVTGYQWNWKFGYAKVAGELSPTGSDYVGTDEKRQEAAEKTKFDQGGDNPNPINGRSKTDTSYLHFNKIETLGTSEEIPV”: the “soluble on expression in E. coli” value is reported as “not soluble”.
To “VADSASTVTNEFSADHPFIYVIRHVDGKILFVGRYSSPTTN” belongs “soluble”; to “VCEKGFEAGDNKLGGALNAKHVEKYGDNFKNGMHKPEFHEDGLHKPMEVGGKKFESGFHYLLECHELGGKNASGGYGGPLCEDPYGSEVQAMTEKLLKEADSDRTLCFNNFQDPCPQLTKEQVAMCKGFDYGDKTLKLPCGPLPWPAGLPEPGYVPKTNPLHGRWITVSGGQAAFIKEAIKSGMLGAAEANKIVADTDHHQTGGMYLRINQFGDVCTVDASVAKFARAKRTWKSGHYFYEPLVSGGNLLGVWVLPEEYRKIGFFWEMESGRCFRIERRAFPVGPYTFMRQATEVGGKISFVFYVKVSNDPESDPIPLQSRDYTALAGRDNAPTNLGKPYPTLAKDLDYPKKRDGWLEKNEKEMLRQRNIVSSTF”, “soluble”; to “VDQFISPEQLQGVIYTDGELQADEMTLEIAELLQSAGPWGQHFPEPLFEGQCRILQQRILAGKHLKLMIQFNDRFELYDAIWFNVDLRTFPDLSIKHAQIVYKLDINEFRGNKNIQLRVESLIPL”, “not soluble”.
As to “VEQIMIQGTASDAGKSVIVAGLCRLFKNKGKRVVPFKSQNMSLNSFITATGDEMGRAQVFQAEAAGVFPDVRMNPVLLKPTNDRQSQVIFMGAILDNMDAVSYHDFKQTLIPKIQAVYQSLADENDIIVLEGAGSPAEINLNDRDIVNMGMAKMVDAPVVLVADIDKGGVFASIYGTIMLLKEEERARLKGVIINKFRGDVALLQPGIEMIEELTNVPVIGVIPYANLQL”, the “soluble on expression in E. coli” value is “not soluble”.
To “VFDWDGTLVDSIARIVDSMKAAARETALPERGDTRIKGIIGLGLPEAIASLYPEVGDPALVERFRCAYSEHYLAQEAQPSRLFPGVAEAMVHFREAGFRLAVATGKSRRGLDRVLAGHGWSDFFDITRCADETASKPDPLMLHEILAHCRVEPGRALMIGDSPFDLEMARRAGMDSVAVAYGAQSLEQLRPYAPRLEVEHFTELRAWLGGARREAVS” belongs “not soluble”; to “VFHPVECSYCHSESMMGFRYRCQQCHNYQLCQDCFWRGHAGGSHSNQHQMKEYTSW”, “soluble”.
As to “VGKEKAEVELLQVDADLQAEIVGKYNADLQKAVQIEEKKAREIATEAVKEHVTAEYEERYAEHEEHDRIMRDVAEILEQMEHAEVRRLITEDKVRPDGRRVDEIRP”, the “soluble on expression in E. coli” value was “not soluble”.
To “VHPLPADHGRSRCNRHPISPLSLIGNASATSGDMSSMTRIAKPLIKSAMAAGLVTASMSLSTAVAHAGPSPNWDAVAQCESGGNWAANTGNGKYGGLQFKPATWAAFGGVGNPAAASREQQIAVANRVLAEQGLDAWPTCGAASGLPIALWSKPAQGIKQIINEIIWAGIQASIPR” belongs “not soluble”; to “VIALLAPGQGSQTEGMLSPWLQLPGAADQIAAWSKAADLDLARLGTTASTEEITDTAVAQPLIVAATLLAHQELARRCVLAGKDVIVAGHSVGEIAAYAIAGVIAADDAVALAATRGAEMAKACATEPTGMSAVLGGDETEVLSRLEQLDLVPANRNAAGQIVAAGRLTALEKLAEDPPAKARVRALGVAGAFHTEFMAPALDGFAAAAANIATADPTATLLSNRDGKPVTSAAAAMDTLVSQLTQPVRWDLCTATLREHTVTAIVEFPPAGTLSGIAKRELRGVPARAVKSPADLDELANL”, “not soluble”.
To “VILKDALLMGTKLLKSADIDTPALEAGVLLCRVLNVDRSYLYSHDDYNMTEEEYKKFTLFLEERIKGKPLQYITGHQEFMSLDFIVTPDVLIPRQDTETLVEAVLTHVKSTGLENARILDIGTGSGCIAVSLAHFLKDSRVLALDISEKALEIAETNAKRCGVWDRMFFLKGDALEGLAGIIAQSPFAKDFERKGEGFFDIIVSNPPYIPSEEIKTLHKQVKDYEPRTALDGGIDGLDFYRAITCEAAKLLSTDSLLAFEVGYNQAENVSEFMKESFSAIKVVKDLAGIDRVVMGCRKQLKD” belongs “soluble”; to “VKAKKQETAATMKDVALKAKVSTATVSRALMNPDKVSQATRNRVEKAAREVGYLPQPMGRNVKRNESRTILVIVPDICDPFFSEIIRGIEVTAANHGYLVLIGDCAHQNQQEKTFIDLIITKQIDGMLLLGSRLPFDASIEEQRNLPPMVMANEFAPELELPTVHIDNLTAAFDAVNYLYEQGHKRIGCIAGPEEMPLCHYRLQGYVQALRRCGIMVDPQYIARGDFTFEAGSKAMQQLLDLPQPPTAVFCHSDVMALGALSQAKRQGLKVPEDLSIIGFDNIDLTQFCDPPLTTIAQPRYEIGREAMLLLLDQMQGQHVGSGSRLMDCELIIRGSTRALP”, “soluble”.
